This note sets out measurements from patent publication US20030161832A1 (CORNELL RESEARCH FOUNDATION, published 2003).

The target in assay [1] is T1, prostate specific membrane antigen (PSMA), human (human, UniProt Q04609 1-750).
T1 construct: whole, on cells; The target was native PSMA on LNCaP cells, in LNCaP membrane preparations (ELISA) or in frozen tissue sections (immunohistochemistry); also called human PSMA
In words: stated, method not described.

Assay [2] has as its target T1, prostate specific membrane antigen …. In words: ELISA on LNCaP membrane preparation. (In general: ELISA stands for enzyme-linked immunosorbent assay.)
Assay [3] shares this target. Nature of the assay: ELISA on LNCaP membrane preparation, purified antibody.

T1 sequence (Q04609 whole entry): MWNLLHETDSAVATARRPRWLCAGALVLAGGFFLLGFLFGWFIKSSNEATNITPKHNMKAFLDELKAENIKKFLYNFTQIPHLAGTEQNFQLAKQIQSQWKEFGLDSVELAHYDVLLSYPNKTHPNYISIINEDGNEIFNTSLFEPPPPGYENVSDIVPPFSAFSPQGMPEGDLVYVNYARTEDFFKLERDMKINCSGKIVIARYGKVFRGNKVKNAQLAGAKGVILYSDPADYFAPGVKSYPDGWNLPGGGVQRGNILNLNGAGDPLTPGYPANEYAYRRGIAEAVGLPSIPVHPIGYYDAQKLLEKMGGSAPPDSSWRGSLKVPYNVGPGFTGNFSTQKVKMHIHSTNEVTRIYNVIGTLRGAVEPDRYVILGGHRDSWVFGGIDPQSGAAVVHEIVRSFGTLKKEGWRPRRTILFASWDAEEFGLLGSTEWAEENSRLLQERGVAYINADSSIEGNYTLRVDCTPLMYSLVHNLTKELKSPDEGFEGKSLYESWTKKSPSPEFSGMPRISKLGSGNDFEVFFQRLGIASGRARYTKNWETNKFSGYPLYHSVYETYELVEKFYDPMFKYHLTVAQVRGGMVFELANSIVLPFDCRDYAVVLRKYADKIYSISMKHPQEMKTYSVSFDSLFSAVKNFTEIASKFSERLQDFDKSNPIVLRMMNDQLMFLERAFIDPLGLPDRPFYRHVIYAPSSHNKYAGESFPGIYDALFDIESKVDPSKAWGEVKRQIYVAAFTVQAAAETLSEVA

B1: murine monoclonal antibody E99 (hybridoma ATCC HB-12101) (antibody, mouse IgG3, V domains shown)
VH: QVQLKESGPGLVASSQSLSITCTVSGFSLTAYGINWVRQPPGKGLEWLGVIWPDGNTDYNSTLKSRLNIFKDNSKNQVFLKMSSFQTDDTARYFCARDSYGNFKRGWFDFWGQGTTLTVSS
VL: NIVMTQSQKFMSTSPGDRVRVTCKASQNVGSDVAWYQAKPGQSPRILIYSTSYRYSGVPDRFTAYGSGTDFTLTITNVQSEDLTEYFCQQYNSYPLTFGAGTKLELK
notes: also called murine E99
In the case of B1, the binding result in assay [1] is recorded as “binds”.

B2: deimmunized J415 antibody composed of heavy chain version 4 (J415DIVH4) and light chain version 5 (J415DIVK5) (antibody, V domains shown)
VH: EVKLEESGGGLVQPGGSMKISCVASGFTFSNYWMNWVRQSPEKGLEWVAEIRSQSNNFATHYAESVKGRVIISRDDSKSSVYLQMNSLRAEDTAVYYCTRRWNNFWGQGTTVTVSS
VL: NIVMTQFPKSMSASAGERMTLTCKASENVGTYVSWYQQKPTQSPKMLIYGASNRFTGVPDRFSGSGSGTDFILTISSVQAEDLVDYYCGQSYTFPYTFGGGTKLEMK
notes: also called DIVH4/DIVK5; deJ415
In the case of B2, the binding result in assay [2] is on record as “binds”.

B3: deimmunized J415 antibody composed of heavy chain version 1 (J415DIVH1) and light chain version 5 (J415DIVK5) (antibody, V domains shown)
VH: EVKLEESGGGLVQPGGSMKISCKASGFTFSNYWMNWVRQTPEKGLEWVALIRSQSNNFATHYAESVKGRVIISRDDSKSSVYLQMNSLRAEDTAVYYCTRRWNNFWGQGTTVTVSS
VL: NIVMTQFPKSMSASAGERMTLTCKASENVGTYVSWYQQKPTQSPKMLIYGASNRFTGVPDRFSGSGSGTDFILTISSVQAEDLVDYYCGQSYTFPYTFGGGTKLEMK
notes: also called DIVK5 combined with heavy chain version 1; J415DIVH1 + J415DIVK5
For B3, in assay [3], the “fold less binding than the chimeric J415 antibody” value was 2 fold.

B4: murine monoclonal antibody J415 (hybridoma ATCC HB-12109) (antibody, mouse IgG1, V domains shown)
VH: EVKLEESGGGLVQPGGSMKLSCVASGFTFSNYWMNWVRQSPEKGLEWVAEIRSQSNNFATHYAESVKGRVIISRDDSKSSVYLQMNNLRAEDTGIYYCTRRWNNFWGQGTTLTVSS
VL: NIVMTQFPKSMSISVGERVTLTCKASENVGTYVSWYQQKPEQSPKMLIYGASNRFTGVPDRFTGSGSATDFILTISSVQTEDLVDYYCGQSYTFPYTFGGGTKLEMK
notes: also called murine J415
For the molecule B4, in assay [1], the binding result was “binds”.

B5: deimmunized J415 antibody composed of heavy chain version 2 (J415DIVH2) and light chain version 5 (J415DIVK5) (antibody, V domains shown)
VH: EVKLEESGGGLVQPGGSMKISCVASGFTFSNYWMNWVRQTPEKGLEWVALIRSQSNNFATHYAESVKGRVIISRDDSKSSVYLQMNSLRAEDTAVYYCTRRWNNFWGQGTTVTVSS
VL: NIVMTQFPKSMSASAGERMTLTCKASENVGTYVSWYQQKPTQSPKMLIYGASNRFTGVPDRFSGSGSGTDFILTISSVQAEDLVDYYCGQSYTFPYTFGGGTKLEMK
notes: also called DIVK5 combined with heavy chain version 2; J415DIVH2 + J415DIVK5
Take B5: the “fold less binding than the chimeric J415 antibody” value in assay [3] came to 2 fold.

B6: J415 chimeric antibody (murine variable heavy and light chain regions fused to human constant heavy and light chain regions) (antibody, V domains shown)
VH: EVKLEESGGGLVQPGGSMKLSCVASGFTFSNYWMNWVRQSPEKGLEWVAEIRSQSNNFATHYAESVKGRVIISRDDSKSSVYLQMNNLRAEDTGIYYCTRRWNNFWGQGTTLTVSS
VL: NIVMTQFPKSMSISVGERVTLTCKASENVGTYVSWYQQKPEQSPKMLIYGASNRFTGVPDRFTGSGSATDFILTISSVQTEDLVDYYCGQSYTFPYTFGGGTKLEMK
notes: also called the chimeric
For B6, the binding result in assay [2] was “binds”.

B7: murine monoclonal antibody J533 (hybridoma ATCC HB-12127) (antibody, mouse IgG1, V domains shown)
VH: EVQLQQSGPELVKPGASVKMSCKASGYTFTGYVMHWVKQKPGQVLEWIGYINPYNDVTRYNGKFKGKATLTSDKYSSTAYMELSGLTSEDSAVYYCARGENWYYFDSWGRGATLTVSS
VL: DIVLTQSPASLAVSLGQRATISCRASESIDSYDNTFMHWYQQKPGQPPNLLIFRASILESGIPARFSGSGSGTDFTLTIYPVEADDVATYYCHQSIEDPYTFGGGTKLEIK
notes: also called murine J533
As for B7, the binding result in assay [1] is “binds”.
